For test [1], the target named is hTIGIT mutant Y113A (human) (UniProt Q495A1). The test is described as follows: SPR (BIACORE), N=2. (Surface plasmon resonance follows binding to a sensor surface in real time, without labels.)
The target of test [2] is hTIGIT mutant Q53A (human) (UniProt Q495A1). The test is described as follows: SPR (BIACORE), N=2.
Test [3] deals with hTIGIT mutant N70A (human) (UniProt Q495A1). The test is described as follows: SPR (BIACORE), N=2.
For test [4], the target named is hTIGIT mutant Y113A (human) (UniProt Q495A1). The experiment in a line: SPR (BIACORE) KD normalized to WT, N=2.
Test [5] addresses hTIGIT mutant Q53A (human) (UniProt Q495A1). The experiment in a line: SPR (BIACORE) KD normalized to WT, N=2.
The target of test [6] is hTIGIT mutant N70A (human) (UniProt Q495A1). The experiment in a line: SPR (BIACORE) KD normalized to WT, N=2.
Test [7] addresses hTIGIT mutant L73A (human) (UniProt Q495A1). The test is described as follows: SPR (BIACORE), N=2.
Test [8] has as its target hTIGIT mutant H76A (human) (UniProt Q495A1). The test is described as follows: SPR (BIACORE), N=2.
The target of test [9] is hTIGIT mutant L73A (human) (UniProt Q495A1). The experiment in a line: SPR (BIACORE) KD normalized to WT, N=2.
Sequence of hTIGIT mutant L73A (human) (Q495A1 22-141 L73A limits assumed): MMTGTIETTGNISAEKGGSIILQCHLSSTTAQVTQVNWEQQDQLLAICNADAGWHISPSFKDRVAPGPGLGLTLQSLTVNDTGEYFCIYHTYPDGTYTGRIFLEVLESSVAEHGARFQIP
Test [10] concerns the target hTIGIT mutant H76A (human) (UniProt Q495A1). The test is described as follows: SPR (BIACORE) KD normalized to WT, N=2.

This note sets out measurements from US20220064286A1.

Usually Kd stands for the concentration at which binding is half-saturated. High values mean lower affinity, low ones higher affinity.

Sequence of hTIGIT mutant Q53A (human) (Q495A1 22-141 Q53A limits assumed): as the sequence (Q495A1 22-141 L73A limits assumed) above, with Q32A, A52L counted along it
Sequence of hTIGIT mutant Y113A (human) (Q495A1 22-141 Y113A limits assumed): as the sequence (Q495A1 22-141 L73A limits assumed) above, with A52L, Y92A counted along it
Sequence of hTIGIT mutant H76A (human) (Q495A1 22-141 H76A limits assumed): as the sequence (Q495A1 22-141 L73A limits assumed) above, with A52L, H55A counted along it
Sequence of hTIGIT mutant N70A (human) (Q495A1 22-141 N70A limits assumed): as the sequence (Q495A1 22-141 L73A limits assumed) above, with N49A, A52L counted along it

B1: 4.1A4.C96S.Q1E (antibody, V domains shown)
VH: EVQLVQSGSELKKPGASVKVSCKASGYTLTNYPMNWVRQAPGRGLEWMGWINTNTGSPAYAQDFTERFVFSLDTSVTTAYLQISSLKAEDTAVYYCARTAITSVYHFDYWGQGTLVTVSS
VL: DIQLTQSPSFLSASVGDRVTITCRASQGISSYLAWYQQKPGKAPRVLIYGATTLQSGVPSRFSGSESGTEFTLTISSLQPEDLATYYCQKLNSHPSSFGQGTKVEIK
Turning to B1, the equilibrium dissociation constant (Kd) in test [1], in test [2] and in [3] was more than 0.5 µM in each case. For the same molecule, the Binding affinity drop vs. WT in test [4], in test [5] and in test [6] was more than 16.2 fold throughout.

B2: 7.4A3.C96S.Q1E (antibody, V domains shown)
VH: EVQLVQSGSDLKKPGASVRVSCKASGYTFTSYPMNWVRQAPGHGLEWMGWINTNTGNPTYVQGFTGRFVFSLDTSVNTAYLQISSLKAEDTAVYFCARTGGHTYDSYAFDVWGQGTMVTVSS
VL: DIQLTQSPTFLSASVGDRVTITCRASQVISSSLAWYQQNPGKAPKLLIYAASTLQSGVPSRFSGSGSGTEFTLTISSLQPEDFVTYYCQHLHGYPSNFGQGTKVEIK
In the case of B2, the Kd in test [1] and in test [2] was more than 0.1 µM throughout. For the same molecule, the Binding affinity drop vs. WT in test [4] and in [5] was more than 56 fold in each case.

B3: h6B2.L2H5 (antibody, V domains shown)
VH: EVTLKESGPALVKPTQTLTLTCTFSGFSLSTYGMGVSWIRQPPGKALEWLASIWWNGNTYYNPSLKSRLTITKDTSKNQVVLTMTNMDPVDTATYYCAHTGGAVITWFAYWGQGTLVTVSS
VL: DIQMTQSPSSLSASVGDRVTITCKASQSVGKNIAWYQQKPGKAPKLLIYYASNRYTGVPSRFSGSGSGTDFTFTISSLQPEDIATYYCQHIYNSPYPFGQGTKVEIK
For B3, the Kd in [7] and in test [8] was more than 0.1 µM each time. The Binding affinity drop vs. WT in [9] and in test [10] was more than 143 fold throughout.
